This note sets out measurements from publication PMC12700808.

Assay [1] has as its target FG repeat domain of 669 residues with non-charged spacers and 36 FSFG motifs. As to the kind of experiment: partitioning into an FG phase (confocal laser scanning microscopy); as a1 but FG phases assembled from the SLFG or the FSFG repeat domain (stocks in 4 M guanidinium hydrochloride, diluted 50-fold).
The target in assay [2] is Nup98-type FG domain comprising 52 perfect 12-mer GLFG repeat units (prf.GLFG52x12). The assay is described as follows: FG phase partitioning assay.
Assay [3] shares this target. The assay is described as follows: FG phase partitioning assay. This is another data set of the same source.
In assay [4] the target is FG repeat domain of 669 residues with non-charged spacers and 36 FSFG motifs. As to the kind of experiment: FG phase partitioning assay.
Assay [5] concerns the target Nup98-type FG domain comprising 52 perfect 12-mer GLFG repeat units (prf.GLFG52x12). As to the kind of experiment: FG phase partitioning assay. The source holds these as a separate data set.
The mark [6] stands for this setting: fluorescence intensity at rim of FG particles.
[7] abbreviates: fluorescence intensity in center of FG particles.
Setting [8] is: signal in center of FG particles.

Substance “CLPs of CA G89V, filled with sinGFP4a (complex)” yielded a fold partitioning against wild type in assay [1] of 4 fold.
Take “conical CLPs (capsid-like particles) of wild-type CA (CA-P1A), filled with sinGFP4a P123E”: the values for the response in assay [2] (setting [6]) and in assay [2] (setting [7]) were 17000 and 7400, respectively. Also, the percent of parent in assay [3] (signal at rim of FG particles) came out at 80%.
As to “20-nm pentamer-only spheres of CA A92E (CA P1A+G60A+G61P background), EGFP-labelled (complex)”, in assay [1], the fold reduction of partitioning against WT was less than 100 fold.
Still for that read-out and setting: with “20-nm pentamer-only spheres of CA G94D (CA P1A+G60A+G61P background), EGFP-labelled (complex)” the figure was less than 100 fold.
Turning to “20-nm T1 pentamer-only capsid spheres (CA P1A+G60A+G61P), EGFP-labelled P90A”, the response in assay [4] (setting [6]) was 45000; in assay [4] (setting [7]) it was 51000. Besides, the percent of parent in assay [4] (signal at rim of FG particles) came to 240%; in assay [4] (setting [8]) it was 260%.
In the case of “conical CLPs (capsid-like particles) of wild-type CA (CA-P1A), filled with sinGFP4a H87Q; A92E; G94D”, the percent of parent in assay [5] (setting [8]) is 2.6%. Besides, the response came out at 8200 in assay [3] (setting [6]) and 670 in assay [3] (setting [7]).
For the substance “20-nm pentamer-only spheres of CA H87Q (CA P1A+G60A+G61P background), EGFP-labelled (complex)”, the fold reduction of partitioning against WT in assay [1] was less than 100 fold.
For “conical CLPs (capsid-like particles) of wild-type CA (CA-P1A), filled with sinGFP4a Q9E; A92E”, the figures for the percent of parent in assay [5] (signal at rim of FG particles) and in assay [5] (setting [8]) were 36% and 2.5%, respectively. For the same substance, the figures for the response in assay [3] (setting [6]) and in assay [3] (setting [7]) were 9700 and 660, respectively.
As to “20-nm pentamer-only spheres of CA Q9E (CA P1A+G60A+G61P background), EGFP-labelled (complex)”, the fold reduction of partitioning against WT in assay [1] is less than 100 fold.
On to “conical CLPs (capsid-like particles) of wild-type CA (CA-P1A), filled with sinGFP4a Q9E”, for which the percent of parent was 89% in assay [5] (signal at rim of FG particles), 13% in assay [5] (setting [8]), 120% in assay [3] (signal at rim of FG particles) and 14% in assay [3] (setting [8]). For the same substance, the response in assay [2] (setting [6]) is 26000; in assay [2] (setting [7]), 3400; in assay [3] (setting [6]) it was 24000; in assay [3] (setting [7]), 3500.
As for “conical CLPs (capsid-like particles) of wild-type CA (CA-P1A), filled with sinGFP4a R97K”, the response in assay [2] (setting [6]) was determined as 20000; in assay [2] (setting [7]), 5000. Also, the percent of parent in assay [3] (signal at rim of FG particles) stood at 90%; in assay [3] (setting [8]), 20%.
As to “conical CLPs (capsid-like particles) of wild-type CA (CA-P1A), filled with sinGFP4a V86E; A88E; I91E; A92E”, the figures for the percent of parent in assay [5] (signal at rim of FG particles) and in assay [5] (setting [8]) were 1% and 0.7%, respectively. Further, the response in assay [3] (setting [6]) came to 260; in assay [3] (setting [7]), 190.
